Reference: patent US9175313B2, “Three-dimensional structure of isoprene synthase and its use thereof for generating variants” (Danisco US Inc., priority 2009, dated 2015)
Residue numbers refer to the chain shown, from its start. Numbers in names are those of the source. Entries after “also recorded” stand apart in the source; their conditions may differ.

B1: SP: P. alba MEA G491S L494P (+) TEV; pDW110, SEQ ID NO: 87 (protein)
chain: MEARRSANYEPNSWDYDYLLSSDTDESIEVYKDKAKKLEAEVRREINNEKAEFLTLLELIDNVQRLGLGYRFESDIRGALDRFVSSGGFDAVTKTSLHGTALSFRLLRQHGFEVSQEAFSGFKDQNGNFLENLKEDIKAILSLYEASFLALEGENILDEAKVFAISHLKELSEEKIGKELAEQVNHALELPLHRRTQRLEAVWSIEAYRKKEDANQVLLELAILDYNMIQSVYQRDLRETSRWWRRVGLATKLHFARDRLIESFYWAVGVAFEPQYSDCRNSVAKMFSFVTIIDDIYDVYGTLDELELFTDAVERWDVNAINDLPDYMKLCFLALYNTINEIAYDNLKDKGENILPYLTKAWADLCNAFLQEAKWLYNKSTPTFDDYFGNAWKSSSGPLQLVFAYFAVVQNIKKEEIENLQKYHDTISRPSHIFRLCNDLASASAEIARGETANSVSCYMRTKGISEELATESVMNLIDETWKKMNKEKLSGSPFAKPFVETAINLARQSHCTYHNGDAHTSPDELTRKRVLSVITEPILPFERENLYFQGLEHHHHHH
modifications: TEV site
B2: wild type IspS: P. alba MEA (+) TEV isoprene synthase, MD09-163, strain MD09-167, SEQ ID NO: 63 (protein)
chain: B1 chain with S491G, P494L
modifications: TEV site
B3: SPC: P. alba MEA G491S L494P T536C (+) TEV; pDW112, SEQ ID NO: 91 (protein)
chain: B1 chain with T536C
modifications: TEV site

What was measured:
[1] = kcat, KM and Ki determination, rate vs [DMAPP], fit to uncompetitive substrate inhibition; assay type: biochemical; conditions: for KM compared to WT isoprene synthase, in words / rate profile vs [DMAPP] / Km / kcat: 1.25 to 20 mM DMAPP, 30 C; for Km / kcat / Ki: average of three trials ± one standard deviation; for kcat: in s^-1 (unit assumed); for Ki: uncompetitive substrate inhibition by DMAPP, read-out: KiDMAPP
Protocol: 10 uL of purified enzyme was incubated with DMAPP at concentrations ranging from 1.25 to 20 mM DMAPP in a buffer containing 50 mM Tris, 50 mM MgCl2 and 50 mM NaCl (pH=8) to a final volume of 100 uL for 15 min. at 30 C in gas tight 2 mL vials. Reactions were terminated with the addition of 100 uL of 250 mM EDTA, pH=8. Samples were analyzed by GC-MS to determine the concentration of isoprene in the headspace of the vials. Data were analyzed using Kaleidagraph and fit to following equation for uncompetitive substrate inhibition: rate/E=kcat*S/(KM+S*(1+S/Ki)). All kinetic assays were performed in triplicate.
Protein concentration was determined by measuring the absorbance of each protein solution at 280 nm on a Helwlett Pachard 8453 UV-Vis spectrophotometer and converting the absorbance to protein concentration using the extinction coefficient as determined on the Expasy website (Gasteiger E., Hoogland C., Gattiker A., Duvaud S., Wilkins M. R., Appel R. D., Bairoch A.; Protein Identification and Analysis Tools on the ExPASy Server; (In) John M. Walker (ed): The Proteomics Protocols Handbook, Humana Press (2005). pp. 571-607). The protein concentrations of isoprene synthase variants assayed for KM and kcat determination were verified by comparative gel electrophoresis of a dilution series of each protein (FIG. 61).

[2] = Specific activity measurement of purified isoprene synthase variants (4 mM DMAPP, 30 C, GC-MS headspace); assay type: biochemical; conditions: for S.A. / Variant S.A./WT S.A.: 50 mM NaCl, 50 mM Tris pH = 8, 30° C.; for Variant S.A./WT S.A.: ratio to WT; for specific activity compared to WT isoprene synthase, in words: 30 C, purified enzyme
Method in brief: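 Ni-affinity-purified, buffer-exchanged enzyme incubated with 4 mM DMAPP and 50 mM MgCl2 in 50 mM Tris, 50 mM NaCl, pH 8, for 15 min at 30 C in sealed vials; stopped with EDTA. Headspace isoprene quantified by GC-MS, in triplicate; protein concentration from A280 with calculated extinction coefficient.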

[3] = Differential scanning calorimetry, thermal midpoint (Tm); assay type: physicochemical
Protocol: Excessive heat capacity curves were measured using an ultrasensitive scanning high-throughput microcalorimeter, VP-Cap DSC (MicroCal, Inc., Northampton, Mass.). The standard procedure for Differential Scanning calorimetry (DSC) measurements and the theory of the technique is previously published (Freire, E. (1995) Differential Scanning calorimetry Methods. Mol. Biol. 41, 191-218). Approximately 500 μL of 0.5 mg/ml IspS (from strain MD09-167) or variant IspS-L494P (from strain DW399) and IspS-T536F (from strain DW363) (in the absence or presence of 5 mM sodium pyrophosphate) were scanned over a 30-100° C. temperature range. The same sample was then re-scanned to check the reversibility of the process. For IspS the thermal unfolding process was irreversible. The buffer used was 50 mM HEPES, 5 mM MgCl2, pH 7.4, with and without 5 mM sodium pyrophosphate. Sodium pyrophosphate was included for its ability to function as a substrate analog. A 200° C./hr scan rate was used to minimize any artifacts that may result from aggregation. The thermal midpoint (Tm) of the DSC curves was used as an indicator of the thermal stability. The thermal melting curves and the melting points for the wild type IspS and variants are shown in FIG. 56 (buffer only) and 57 (with 5 mM sodium pyrophosphate).

Row | Molecule | KM compared to WT isoprene synthase, in words [1] | rate profile vs [DMAPP] [1] | Km [1] | kcat [1] | Ki [1] | S.A. [2] | Variant S.A./WT S.A. [2] | specific activity compared to WT isoprene synthase, in words [2] | thermal melting point (Tm) ([3]; buffer alone (50 mM HEPES, 5 mM MgCl2, pH 7.4)) | thermal melting point (Tm) ([3]; in the presence of 5 mM sodium pyrophosphate) | reversibility of the thermal unfolding process ([3]; re-scan of the same sample)
1 | B1 | less than the KM of the WT | uncompetitive substrate inhibition by DMAPP | 4.4 ± 0.3 mM | 1.2 ± 0.1 | 18 ± 1 mM | 770 ± 40 nmol/mg/min | 1.6 | increased specific activity; also recorded: greater than the WT isoprene synthase but less than the β isoprene synthase variant | – | – | –
2 | B2 | – | uncompetitive substrate inhibition by DMAPP | 7 ± 4 mM | 1.5 ± 0.6 | 16 ± 9 mM | 480 ± 20 nmol/mg/min | 1.0 | – | 58.3 °C | 54.7 °C | irreversible
3 | B3 | less than the KM of the WT | uncompetitive substrate inhibition by DMAPP | 3.5 ± 0.8 mM | 1.5 ± 0.4 | 25 ± 21 mM | 630 ± 40 nmol/mg/min | 1.3 | increased specific activity; also recorded: greater than the WT isoprene synthase but less than the β isoprene synthase variant | – | – | –
